Test results published in the supplement of paper PMC10126150.
± gives the standard deviation of the averaged measurements.

Tested on: ATP
Assay: switch fluorescence ratio, 500 uM ATP over buffer (Cy3 cluster intensity, sum of 5 cycles each) (fold (ratio)); higher = stronger signal-on switching upon ATP binding; sequences stand for … in TCGTCGGCAGCGTCAGATGTGTATAAGAGACAGTTTTTTTTTTTTTTTTTTTTTTTTT…TC
Conditions: aptamer strand: ATP DNA aptamer (quencher-CACCTGGGGGAGTATTGCGGAGGAAGG + anchor), 100 nM annealed; ATP concentration: 500 uM
Method in brief: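 Cy3-labelled switching-strand clusters on a modified Illumina MiSeq flow-cell were annealed to 100 nM quencher-labelled ATP aptamer, imaged in selection buffer, then imaged after 15 min with 500 uM ATP at 22 °C. Five buffer/ATP cycles ran, with NaOH stripping and re-annealing between them. The fluorescence ratio is summed target-cycle over summed buffer-cycle Cy3 intensity per cluster, averaged per switch-domain sequence. Clusters outside 100-1000 RFU were excluded.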
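Further: ATP exposure 15 min at 22 °C before imaging.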

Sequence	switch fluorescence ratio
GCCAACAGTG	1.32 ± 0.12
ATTAGTGGGT	0.9826 ± 0.005
ATATCTTTTG	0.9904 ± 0.0088
AGCAAGGGGA	1.07 ± 0.058
TTTAGGGTG	1.05 ± 0.061
CGGGGGGGCG	1.03 ± 0.074
AGTGGGGGGA	1.02 ± 0.028
AAGTCGGTCT	1.05 ± 0.1
ATCTTGGTCT	1.01 ± 0.045
AAAGTCAGTA	0.9818 ± 0.007
GTGTGGGTTC	0.982 ± 0.012
CGAGTAGGTT	1.01 ± 0.011
ATTGGGAAAA	1.03 ± 0.019
AGAGGCTGTT	1.03 ± 0.041
TATTTAAGGT	1 ± 0.02
TACGGGAATT	1.04 ± 0.023
ACCGCACCAA	1.34 ± 0.051
GGGAAGGTGG	1.04 ± 0.02
GGGAAAGAAT	0.978 ± 0.011
GGTCGGGGTT	1.02 ± 0.034
TTGTCCGCGG	1.06 ± 0.091
GAAGAAGGTG	1.43 ± 0.018
TAAACGCGGG	1.04 ± 0.093

Sequence	switch fluorescence ratio
AATTAAAAAG	0.975 ± 0.023
GATGAGTGGT	0.979 ± 0.02
CGATTGTGCG	1.04 ± 0.029
ATGCGCTCGA	1.02 ± 0.053
TATTAGAATC	0.994 ± 0.026
CTGCTAGGGG	1.04 ± 0.034
TGAGAAGCGG	0.97 ± 0.039
GGTGAAGAGT	1 ± 0.038
TTTTAGTCGG	0.9883 ± 0.0092
ATTAGGGTGG	0.992 ± 0.018
CAGTTATGCC	0.988 ± 0.077
GTGTTAAAAT	1.01 ± 0.018
AGGGGGGAGA	0.994 ± 0.026
ATATCGGTAG	0.999 ± 0.014
TTTCGACAAG	1.07 ± 0.1
AATTAGGTTG	0.967 ± 0.025
ATGTAGATAT	1.01 ± 0.021
AGAGTCCGCT	1.18 ± 0.084
ACACTGTATC	1.21 ± 0.038
GTGGATATGG	0.995 ± 0.043
AGTTTTTGTT	0.987 ± 0.024
AGTTTTATCC	1.006 ± 0.0052
AGTTGTGAGT	0.9726 ± 0.0077

Sequence	switch fluorescence ratio
CAATGGTTAG	0.998 ± 0.026
TATCTGTTTC	1.01 ± 0.016
TCCAGGGGGG	1.18 ± 0.27
GGTGGGGCTG	0.968 ± 0.03
AGGATAGTTG	0.982 ± 0.038
CTTACGTCTG	1.01 ± 0.015
AAGGGCCGGG	0.967 ± 0.029
GATTCATGTT	0.998 ± 0.013
TCATTATTAA	1.01 ± 0.027
TTGTTTATAT	0.9853 ± 0.0053
ATGCGGAGTG	0.987 ± 0.02
TAAAGGGTTT	0.982 ± 0.021
CCATGACTCT	0.983 ± 0.016
AGTTACGGAC	1.36 ± 0.017
CGGTCTGGGG	0.981 ± 0.027
CGAGGGAGCA	1.01 ± 0.025
GGTCGGGGTC	0.966 ± 0.039
ATGTCAGGGG	1.14 ± 0.021
TTGCGGCGGT	0.983 ± 0.033
CGTTGTGGAA	1.006 ± 0.0056
TCGGGTATGT	0.977 ± 0.029
GGGGAGCATT	1.04 ± 0.013
CCAACCTGAT	1.31 ± 0.18

Sequence	switch fluorescence ratio
TCAGGGGTTG	1.09 ± 0.17
GAGTCGGGGT	1.01 ± 0.027
TTTTGGACCC	1.01 ± 0.035
TATGGTTTGG	0.987 ± 0.028
GAACTTGATG	0.997 ± 0.036
CAGTAGCGG	1.14 ± 0.018
GTGAGTGCCT	1.006 ± 0.01
AGGATTTTTG	1.02 ± 0.021
GCGGATTCGG	0.9551 ± 0.0048
TGGAGGGAAG	1.03 ± 0.059
TTAAACTTAT	1.047 ± 0.0024
GCTATAGGGG	1.02 ± 0.02
GTGGTGCTTA	0.996 ± 0.032
TGCTTTTTGT	1.02 ± 0.046
CGTTTGACCT	1.03 ± 0.026
TTAGAGAGTG	0.984 ± 0.044
TGTGCCCCTT	0.991 ± 0.042
TGGCGATTGT	0.986 ± 0.014
GACGACAGTC	1.029 ± 0.0052
GGGCGGTTTG	0.971 ± 0.046
TTAGTTGATA	1.01 ± 0.018
AAAACTTTGA	1 ± 0.017
TGGGGATCCG	1.016 ± 0.0095

Sequence	switch fluorescence ratio
ACTGGAAGTC	0.9875 ± 0.0088
GGTTTAATGT	0.9927 ± 0.0098
TGACTTTTCG	0.995 ± 0.032
AATAATCAGT	1.05 ± 0.033
GGGCGATGTT	0.984 ± 0.04
ACTTTCCGTT	1.1 ± 0.05
TGTTTTGTGG	1.02 ± 0.018
AGCTATTAAG	0.9947 ± 0.0065
AAGCTCCTCT	1.03 ± 0.032
GTTAGTACGG	0.9819 ± 0.0036
CATATTTT	0.971 ± 0.047
CGGGGGCATG	1.013 ± 0.0094
AGGTTGGTTA	0.984 ± 0.029
GGGGTGGCAA	1.008 ± 0.0037
ATTGATTCTT	1.01 ± 0.051
GGATGACTTT	0.9981 ± 0.0071
GGTGGTCGAC	1.03 ± 0.038
TTGGTGGTT	0.9809 ± 0.0089
ATGAGGGTCG	0.993 ± 0.014
GGTTTGGGGA	0.983 ± 0.011
GGTATTTTGC	0.979 ± 0.048
TAGGTTCGAG	0.985 ± 0.011
GAAGTTATTG	0.9898 ± 0.0022

Sequence	switch fluorescence ratio
CGGAGTGGTA	1.09 ± 0.014
TAAATTTAAT	0.982 ± 0.034
TCAATGGTGG	1.01 ± 0.028
TATCATGTCG	0.986 ± 0.031
TAAGTGTTGC	1 ± 0.037
CTAGGAGTTT	0.999 ± 0.011
TACGGGTAGC	1.04 ± 0.02
CTGTTTGTAT	0.978 ± 0.02
TTTTGGTTCC	1.01 ± 0.016
CAATGGCCTC	1 ± 0.047
CGCTGAGAGG	1 ± 0.027
AATAGAGGTT	0.965 ± 0.02
TTCAGGGGGT	1.02 ± 0.054
GGGTCGGGGT	0.99 ± 0.029
TATTTGAGCT	1.03 ± 0.037
GACTTTTACC	1.07 ± 0.027
AAGGACAGGA	1.03 ± 0.026
TTGCAGACTT	1.05 ± 0.072
CATCCGTGGG	1.75 ± 0.085
GATGGTAGCC	0.9862 ± 0.0098
TTGGCCGCAT	1.24 ± 0.09
CAGAGCTTTT	1.05 ± 0.058
CAGGGGATGC	0.987 ± 0.067

Sequence	switch fluorescence ratio
GATCATGCGG	0.9854 ± 0.0089
GATCGGGCTG	0.903 ± 0.051
GCGATACTCG	3.56 ± 0.16
GCCGGGCCGG	0.9666 ± 0.0055
TTCGGTCACC	1.014 ± 0.0054
CTGTGATACT	2.93 ± 0.22
CGGTTGTTTG	0.974 ± 0.015
TCGAGCCGAA	1.04 ± 0.019
ATTAAGGGGC	1.02 ± 0.017
AAATGCGGCC	1 ± 0.067
AGGGACTGAC	1.24 ± 0.075
GAGATATACT	1.06 ± 0.017
AGACCATAGA	1.02 ± 0.024
TGATTGTATG	1.01 ± 0.011
AGAGAATATT	1.03 ± 0.039
GTTTTTTATT	0.996 ± 0.033
ATTAGTAGAT	0.97 ± 0.013
TATGATCAGG	0.9933 ± 0.0025
CGCGTTATGT	1.03 ± 0.0081
